Measured values: article PMC1802561 (Nucleic Acids Research, 2006)

T1: native YoeB (Escherichia coli, UniProt P69348 1-84)
T1 sequence: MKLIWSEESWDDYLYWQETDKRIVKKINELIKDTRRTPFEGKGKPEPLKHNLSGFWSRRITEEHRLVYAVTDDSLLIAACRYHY

T2: YoeB-His6 (Escherichia coli, UniProt P69348 1-84)
T2 sequence: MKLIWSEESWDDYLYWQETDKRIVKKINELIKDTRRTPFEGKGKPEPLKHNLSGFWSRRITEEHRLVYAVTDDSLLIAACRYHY

T3: His10-YefM (Escherichia coli, UniProt P69346 1-83)
T3 sequence: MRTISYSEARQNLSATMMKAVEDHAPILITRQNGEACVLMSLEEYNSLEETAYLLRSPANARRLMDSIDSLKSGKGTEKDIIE

T4: YefM (native, intein-cleaved);YoeB (native, untagged) (Escherichia coli;Escherichia coli, UniProt P69346;P69348 1-83;1-84, |)
T4 sequence 1: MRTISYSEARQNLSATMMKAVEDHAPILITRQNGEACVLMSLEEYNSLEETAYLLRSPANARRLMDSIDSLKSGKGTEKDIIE
T4 sequence 2: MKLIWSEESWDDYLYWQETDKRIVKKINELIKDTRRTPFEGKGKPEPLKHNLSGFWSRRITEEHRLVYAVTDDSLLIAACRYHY

T5: YefM (native, intein-cleaved) (Escherichia coli, UniProt P69346 1-83)
T5 sequence: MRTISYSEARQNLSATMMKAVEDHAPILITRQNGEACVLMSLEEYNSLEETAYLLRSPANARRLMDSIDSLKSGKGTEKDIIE

T6: YefM-His6 (Escherichia coli, UniProt P69346 1-83)
T6 sequence: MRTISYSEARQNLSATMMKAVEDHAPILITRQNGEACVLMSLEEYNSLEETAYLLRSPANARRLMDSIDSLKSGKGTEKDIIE

T7: YoeB (native, untagged) (Escherichia coli, UniProt P69348 1-84)
T7 sequence: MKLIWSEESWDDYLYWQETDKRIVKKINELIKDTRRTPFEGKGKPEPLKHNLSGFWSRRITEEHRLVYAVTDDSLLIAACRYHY

T8: YoeB-His6 (Escherichia coli, UniProt P69348 1-84)
T8 sequence: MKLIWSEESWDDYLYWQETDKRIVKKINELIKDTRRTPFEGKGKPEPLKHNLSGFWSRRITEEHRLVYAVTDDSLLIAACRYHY

B1: native YefM (natural protein)
chain: MRTISYSEARQNLSATMMKAVEDHAPILITRQNGEACVLMSLEEYNSLEETAYLLRSPANARRLMDSIDSLKSGKGTEKDIIE
B2: YefM of the YefM–YoeB–His6 complex (natural protein)
chain: MRTISYSEARQNLSATMMKAVEDHAPILITRQNGEACVLMSLEEYNSLEETAYLLRSPANARRLMDSIDSLKSGKGTEKDIIE
B3: 99 bp yefM-yoeB promoter-operator (oligos 1/2) (dsDNA)
DNA 1: GTCGAGAATTCTCTACAAACTAATTAATAAATAGTTAATTAACGCTCATCATTGTACAATGAACTGTACAAAAGAGGAGATTGACATGGGATCCAGTGC
DNA 2: GCACTGGATCCCATGTCAATCTCCTCTTTTGTACAGTTCATTGTACAATGATGAGCGTTAATTAACTATTTATTAATTAGTTTGTAGAGAATTCTCGAC

Assays:
native YoeB = biological target: T1, native YoeB; assay: native gel or EMSA
cross-linking = biological target: the molecule itself; assay: cross-linking
YoeB-His6 [1] = biological target: T2, YoeB-His6; assay: cross-linking
His10-YefM = biological target: T3, His10-YefM; assay: EMSA
[2] = biological target: T4, YefM (native, intein-cleaved);YoeB …; assay: EMSA
[3] = biological target: T5, YefM (native, intein-cleaved); assay: EMSA
YefM-His6 = biological target: T6, YefM-His6; assay: EMSA
YoeB (native, untagged) = biological target: T7, YoeB (native, untagged); assay: EMSA
YoeB-His6 [4] = biological target: T8, YoeB-His6; assay: EMSA

| Binder | binding result (native YoeB) | stoichiometry N (cross-linking) | binding result (YoeB-His6 [1]) | binding result (His10-YefM) | binding result [2] | binding result [3] | binding result (YefM-His6) | binding result (YoeB (native, untagged)) | binding result (YoeB-His6 [4]) |
| --- | --- | --- | --- | --- | --- | --- | --- | --- | --- |
| B1 | binds | 2 | – | – | – | – | – | – | – |
| B2 | – | 2 | binds | – | – | – | – | – | – |
| B3 | – | – | – | binds | binds | binds | binds | no binding | no binding |
